In US20190185562A1:
One block for each binder: values may come before it.

Key:
[1] = target: gp130 expressed endogenously on IMR-32/STAT3-Luc cells (human) (UniProt P40189); assay: cell-based or functional assay
[2] = target: wild-type human GP130 on HEK293.STAT3.Luc.GP130.hLEPR reporter cells (human) (UniProt P40189); assay: cell-based or functional assay
wild-type human GP130 on HEK293.STAT3.Luc.GP130.hLEPR reporter cells (human), sequence (P40189 23-918): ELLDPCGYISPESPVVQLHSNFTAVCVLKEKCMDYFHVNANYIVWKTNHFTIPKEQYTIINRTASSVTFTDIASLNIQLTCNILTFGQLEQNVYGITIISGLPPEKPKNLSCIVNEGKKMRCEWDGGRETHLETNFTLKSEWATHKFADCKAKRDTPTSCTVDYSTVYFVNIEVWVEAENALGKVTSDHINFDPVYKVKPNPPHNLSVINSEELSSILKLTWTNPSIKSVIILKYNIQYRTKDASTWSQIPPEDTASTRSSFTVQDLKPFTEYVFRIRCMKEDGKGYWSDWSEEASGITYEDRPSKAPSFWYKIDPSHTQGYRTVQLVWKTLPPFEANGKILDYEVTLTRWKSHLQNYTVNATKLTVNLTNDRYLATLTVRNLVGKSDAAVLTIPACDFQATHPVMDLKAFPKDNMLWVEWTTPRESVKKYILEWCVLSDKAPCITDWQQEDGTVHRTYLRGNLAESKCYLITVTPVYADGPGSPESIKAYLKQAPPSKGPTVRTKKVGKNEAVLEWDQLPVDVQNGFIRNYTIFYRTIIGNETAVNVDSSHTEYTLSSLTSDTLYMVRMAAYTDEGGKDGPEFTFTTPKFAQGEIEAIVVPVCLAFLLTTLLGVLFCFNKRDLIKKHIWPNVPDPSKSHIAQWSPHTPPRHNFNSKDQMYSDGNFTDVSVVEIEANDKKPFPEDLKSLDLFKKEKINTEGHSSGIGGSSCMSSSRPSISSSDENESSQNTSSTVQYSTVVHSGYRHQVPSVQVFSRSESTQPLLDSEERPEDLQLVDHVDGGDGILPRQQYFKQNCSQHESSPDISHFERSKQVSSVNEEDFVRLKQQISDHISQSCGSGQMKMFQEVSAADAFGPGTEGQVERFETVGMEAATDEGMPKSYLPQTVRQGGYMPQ

gp130 expressed endogenously on IMR-32/STAT3-Luc cells (human), sequence (P40189 23-918): as above

EC50 of activation of IMR-32/STAT3-luc cells (STAT3-luciferase) [1]: 0.054 nM | EC50 (M), STAT3-luciferase activation of HEK293.STAT3.Luc.GP130.hLEPR (Y1141F) cells [2]: 5.92e-10 M | EC50 (M), STAT3-luciferase activation of HEK293.STAT3.Luc.GP130.hLEPR (a) cells [2]: 1.21e-10 M | Percentage activation as compared to hOSM [2]: 100% | Percentage maximum activation as compared to hOSM [2]: 100%
B1: human Oncostatin M (ligand, UniProt P13725 26-252, looked up)
chain: AAIGSCSKEYRVLLGQLQKQTDLMQDTSRLLDPYIRIQGLDVPKLREHCRERPGAFPSEETLRGLGRRGFLQTLNATLGCVLHRLADLEQRLPKAQDLERSGLNIEDLEKLQMARPNILGLRNNIYCMAQLLDNSDTAEPTKAGRGASQPPTPTPASDAFQRKLEGCRFLHGYHRFMHSVGRVFSKWGESPNRSRRHSPHQALRKGVRRTRPSRKGKRLMTRGQLPR

EC50 of activation of IMR-32/STAT3-luc cells (STAT3-luciferase) [1]: 0.004 nM
B2: human Ciliary Neurotrophic Factor (ligand, UniProt P26441 2-200, looked up)
chain: AFTEHSPLTPHRRDLCSRSIWLARKIRSDLTALTESYVKHQGLNKNINLDSADGMPVASTDQWSELTEAERLQENLQAYRTFHVLLARLLEDQQVHFTPTEGDFHQAIHTLLLQVAAFAYQIEELMILLEYKIPRNEADGMPINVGDGGLFEKKLWGLKVLQELSQWTVRSIHDLRFISSHQTGIPARGSHYIANNKKM
